Results published in patent US9526786B2, “Thermostabilization of proteins” (The Trustee of Columbia University in the City of New York, priority 2007, dated 2016).

T1: CocE (Rhodococcus sp., UniProt Q9L9D7)
T1 construct: 6xHis (C); made in house; host or cells: E. coli BL-21 Gold (DE3), pET-22b(+)
T1 sequence (Q9L9D7 1-574): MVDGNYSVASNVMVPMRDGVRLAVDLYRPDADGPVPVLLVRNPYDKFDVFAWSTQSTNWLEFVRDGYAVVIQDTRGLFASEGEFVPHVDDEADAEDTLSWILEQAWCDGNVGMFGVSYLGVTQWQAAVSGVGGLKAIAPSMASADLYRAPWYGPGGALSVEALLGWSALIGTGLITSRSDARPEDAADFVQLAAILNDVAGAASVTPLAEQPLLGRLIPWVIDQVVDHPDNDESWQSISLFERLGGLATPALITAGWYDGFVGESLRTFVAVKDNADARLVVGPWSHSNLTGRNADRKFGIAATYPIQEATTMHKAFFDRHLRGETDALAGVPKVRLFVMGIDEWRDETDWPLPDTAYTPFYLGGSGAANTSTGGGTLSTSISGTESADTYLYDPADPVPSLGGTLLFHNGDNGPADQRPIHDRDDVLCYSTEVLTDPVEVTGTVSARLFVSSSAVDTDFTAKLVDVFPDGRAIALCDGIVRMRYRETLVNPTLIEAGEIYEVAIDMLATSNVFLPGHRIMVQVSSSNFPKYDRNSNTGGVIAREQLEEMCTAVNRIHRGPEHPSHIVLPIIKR


Columns and labels:
CocE [1] = molecular target: T1, CocE; assay: Screen for stabilization of CocE: 1 hour at 37° C., then 4-nitrophenyl acetate cleavage; type: biochemical, Rhodococcus sp. MB 1; conditions: forty compounds tested
Description: However all of these small molecules inhibited enzyme activity to certain degrees. It was evaluated whether there might exist a small molecule that could prevent CocE aggregation, without inhibiting enzyme activity. Such a molecule could be used as a stabilizer in vitro, e.g., during enzyme preparation, and in vivo. An assay was designed to screen a library of 20,000 small molecules for stabilization of CocE. In that assay, the enzyme is mixed with the compounds in a 96-well plate format, and then incubated at 37° C. for one hour. […] After 37° C. incubation, the enzyme/compound mixtures are tested for the ability to cleave 4-nitrophenyl acetate (FIG. 8). Only compounds stabilized would be able to cleave after this incubation period.
Forty compounds were first tested. The compounds were assayed in duplicate with appropriate controls. A duplicate plate (without enzyme) was performed as a negative control, to check for compounds able to cause an increase in 400 nm absorbance in the absence of CocE. […] Some were able to do this in the absence of CocE. These were discarded as false positives.
FIG. 9 is a plot of the initial rate of 4-nitrophenyl acetate cleavage for all compounds, after the background “no enzyme” cleavage was subtracted. […]

CocE [2] = molecular target: T1, CocE; type: biochemical, Rhodococcus sp. MB 1; conditions: cocaine: 62.5 and 125 μM; benzoic acid: higher concentrations
Description: CocE is also able to cleave another substrate, 4-nitrophenyl acetate (FIG. 3). Cleavage is monitored by detection of the appearance of the 4-nitrophenol reaction product, which absorbs at 400 nm.
Further spectrophotometric analysis of cocaine stabilization was performed, by analyzing the ability of CocE to cleave 4-nitrophenyl acetate, after preincubation at 37° C. for various times, in the presence of various concentrations of cocaine. […] However, preincubation of CocE at the higher concentrations for various times at 37° C. indicated the enzyme was stabilized enough to be able to cleave the 4-nitrophenyl substrate (FIG. 5).

CocE [3] = molecular target: T1, CocE; type: biochemical, Rhodococcus sp. MB 1
Description: (§1) Analysis of CocE action on cocaine cleavage is performed by utilizing the spectroscopic properties of cocaine, which maximally absorbs light at a 240 nm wavelength. CocE activity is measured by monitoring for a decrease in signal at A240, using various concentrations of cocaine, and determining the initial rate of the decrease. From these values the Vmax of the enzyme can be determined. By pre-incubating the enzyme at 37° C. for various times before monitoring for activity, the half life of CocE at 37° C. can be calculated.
(§2) The initial rates (of decay) were determined by following the change in the intrinsic absorbance of cocaine at 240 nm (6700 M^1 cm^1)(Xie et al., 1999) using a SpectraMax Plus 384 UV plate reader (Molecular Devices, Sunnyvale, Calif.) using SOFTmax Pro software (Version 3.1.2). The reaction was initiated by adding 100 μL of a 2× enzyme solution (100 mM phosphate buffer, pH 7.4 and 300 mM NaCl) to 100 μL of a 2× cocaine solution (50 μg/mL enzyme, 100 mM Phosphate Buffer, pH 7.4 and 300 mM NaCl). All assays were performed with 100 μM DTT unless indicated otherwise. Final cocaine concentrations were as follows: 125, 62.5, 31.25, 15.63, 7.81, 3.91, 1.95, and 0.977 μM. Vmax and Km values were calculated using Prism (GraphPad Software, San Diego). For stability measurements, wild type and mutant enzymes were diluted to 2× concentration and incubated at 37° C. for the times indicated. At the end of each time point, an aliquot was removed and kinetic behavior was observed as outlined above.
(§3) In vitro kinetic assays. […] Initial rates were then used to determine Michaelis-Menten parameters. To assess thermal stability, enzyme preparations were preincubated at 37° C. for various lengths of time, prior to measurement of residual activities (Table 1 and FIG. 23).

[4] = Circular dichroism melting temperature of CocE proteins alone; type: physicochemical; conditions: for melting temperature: circular dichroism, enzyme alone
Description: Further characterization of the stability of wild type (WT) CocE and thermostable mutants was performed through circular dichroism, which detects small changes in protein conformation and structure. Analysis by repeated CD measurements at increasing temperatures allows analysis of the thermodynamics and melting temperature (TM) of the protein, so long as the melting is reversible (i.e. the protein resumes it's original conformation upon cooling). […] However CD is still of value in determining the temperature to unfolding.

[5] = Description: as §1
as §2, with “Final cocaine concentrations were as follows: 125, 62.5, 31.25, 15.63, 7.81, 3.91, 1.95, and 0.977 μM. Vmax and Km values were calculated using Prism (GraphPad Software, San Diego).” left out
as §3

[6] = tested on: cocaine-induced lethality; assay: In vivo potency of protection against cocaine-induced lethality; parameters: species or system NIH-Swiss mice; conditions: for protection against cocaine-induced lethality: i.v. pretreatment 1 min prior to i.p. cocaine
[7] = Michaelis-Menten kinetics of cocaine hydrolysis (absorbance at 240 nm); type: biochemical; conditions: cocaine
Description: as §2, §3
Determination of Catalytic Efficiency. To determine the catalytic activity a spectrophometric assay was performed. Samples of L169K/G173Q CocE were added to a 96-well UV permeable plate containing increasing cocaine concentrations (0.5, 2.5, 5, 12.5, 25, 50, 100, and 150 μM) to give a final concentration of 10 ng/ml CocE in a final volume of 200 μl. The change in absorbance at 240 nm was measured over 20 minutes, with readings every 10 seconds, by a SpectraMax Plus 384 UV plate reader (Molecular Devices, Sunnyvale, Calif.) using SOFTmax Pro software (Version 3.1.2). The change in absorbance was converted to the change in concentration and furthermore the rate of decay per mole enzyme is determined (Kcat). Kcat and Km of the enzyme are determined using Prism (GraphPad software, San Diego).

[8] = tested on: cocaine-induced lethality; assay: In vivo duration of protection against cocaine-induced lethality; parameters: species or system NIH-Swiss mice; conditions: 1 mg i.v.; cocaine 180 mg/kg i.p.
Description: In vivo protection against cocaine lethality. Male NIH-Swiss mice (25-32 g) were obtained from Harlan Inc. (Indianapolis, Ind.) and were housed in groups of 6 mice per cage. All mice were allowed ad libitum access to food and water, and were maintained on a 12-h light-dark cycle with lights on at 06.30 AM in a room kept at a temperature of 21-22° C. Experiments were performed in accordance with the Guide for the Care and Use of Laboratory Animals as adopted and promulgated by the National Institutes of Health. The experimental protocols were approved by the University Committee on the Use and Care of Animals at the University of Michigan.
Cocaine-induced toxicity was characterized by the occurrence of lethality, as defined by the cessation of observed movement and respiration. Mice were placed individually in Plexiglas observation chambers (16×28×20 cm high) to be habituated for 15 min before drug administration. Following intra-peritoneal (i.p.) cocaine administration, the mouse was immediately placed individually in the same chamber for observation. The presence or absence of lethality was recorded for 60 min following cocaine administration. The mouse was placed in a small restraint chamber (Outer tube diameter: 30 mm; Inner tube diameter: 24 mm) that left the tail exposed. The tail was cleansed with an alcohol wipe and a 30G1/2 precision glide needle (Fisher Scientific, Pittsburgh, Pa.) was inserted into one of the side veins for infusion. The i.v. injection volume of CocE or CocE mutant was 0.2 mL per mouse. Sterile gauze and pressure were applied to the injection site to staunch the bleeding.
Lethality was monitored following injection at 1, 5, 10, or 30 min, or 1, 2, 3, 4, 5 hours after enzyme administration. Each treatment used 8 mice to assess the percent of lethality (i.e., protection) in mice pretreated with a single dose of an esterase at a single time point.
These values were used to compare the degree of rightward shifts of cocaine's dose-response curve in the absence or presence of the enzyme pretreatment. In the time course study, a time point for duration of protection (i.e., 50% of lethality) was estimated by using each time course curve crossing 50% occurrence of lethality.
Evaluation of in vivo half life. CocE is administered IV to the tail vein in a volume of 0.2 ml. Animals are challenged with 180 mg/kg cocaine delivered intraperitoneally at a given time after CocE administration.

Row | Molecule | effectiveness in stabilization screen (CocE [1]) | inhibition of 4-nitrophenyl acetate cleavage (CocE [2]) | inhibition of cocaine cleavage (CocE [3]) | melting temperature higher than the WT [4] | melting temperature [4] [°C] | Stability @ 37 (t1/2) [5] [h] | half-life / τinact of activity at 37° C. [5] [h] | t1/2 [5] [h] | protection against cocaine-induced lethality [6] | Kcat(mol · s^−1 · mol^−1) [7] [mol · s^−1 · mol^−1] | LT50, pretreatment time to 50% lethality [8] [h] | plateau of catalytic activity, percent of maximal ([5]; 37° C., after greater than 8 hr / t=10 hours) | rightward shift in the cocaine dose-response curve ([6]; enzyme 1 mg (30 mg/kg) i.v.) | increase in Km [7] [fold]
1 | COc1ccc(OC)c(N(CC(=O)N2CCCCC2)S(=O)(=O)c2ccccc2)c1 [compound 6169221] | effective | did not inhibit | did not inhibit |  |  |  |  |  |  |  |  |  |  | 
2 | T172R: CocE mutant (protein, listed as Rhodococcus sp.) MVDGNYSVASNVMVPMRDGVRLAVDLYRPDADGPVPVLLVRNPYDKFDVFAWSTQSTNWLEFVRDGYAVVIQDTRGLFASEGEFVPHVDDEADAEDTLSWILEQAWCDGNVGMFGVSYLGVTQWQAAVSGVGGLKAIAPSMASADLYRAPWYGPGGALSVEALLGWSALIGRGLITSRSDARPEDAADFVQLAAILNDVAGAASVTPLAEQPLLGRLIPWVIDQVVDHPDNDESWQSISLFERLGGLATPALITAGWYDGFVGESLRTFVAVKDNADARLVVGPWSHSNLTGRNADRKFGIAATYPIQEATTMHKAFFDRHLRGETDALAGVPKVRLFVMGIDEWRDETDWPLPDTAYTPFYLGGSGAANTSTGGGTLSTSISGTESADTYLYDPADPVPSLGGTLLFHNGDNGPADQRPIHDRDDVLCYSTEVLTDPVEVTGTVSARLFVSSSAVDTDFTAKLVDVFPDGRAIALCDGIVRMRYRETLVNPTLIEAGEIYEVAIDMLATSNVFLPGHRIMVQVSSSNFPKYDRNSNTGGVIAREQLEEMCTAVNRIHRGPEHPSHIVLPIIKR |  |  |  | 2-3 degrees | ~42 | ~0.767 | 0.767 | 0.78 | protected | 2502 | ~1.8 |  |  | 
3 | L169K: CocE mutant (protein, listed as Rhodococcus sp.) MVDGNYSVASNVMVPMRDGVRLAVDLYRPDADGPVPVLLVRNPYDKFDVFAWSTQSTNWLEFVRDGYAVVIQDTRGLFASEGEFVPHVDDEADAEDTLSWILEQAWCDGNVGMFGVSYLGVTQWQAAVSGVGGLKAIAPSMASADLYRAPWYGPGGALSVEALLGWSAKIGTGLITSRSDARPEDAADFVQLAAILNDVAGAASVTPLAEQPLLGRLIPWVIDQVVDHPDNDESWQSISLFERLGGLATPALITAGWYDGFVGESLRTFVAVKDNADARLVVGPWSHSNLTGRNADRKFGIAATYPIQEATTMHKAFFDRHLRGETDALAGVPKVRLFVMGIDEWRDETDWPLPDTAYTPFYLGGSGAANTSTGGGTLSTSISGTESADTYLYDPADPVPSLGGTLLFHNGDNGPADQRPIHDRDDVLCYSTEVLTDPVEVTGTVSARLFVSSSAVDTDFTAKLVDVFPDGRAIALCDGIVRMRYRETLVNPTLIEAGEIYEVAIDMLATSNVFLPGHRIMVQVSSSNFPKYDRNSNTGGVIAREQLEEMCTAVNRIHRGPEHPSHIVLPIIKR |  |  |  |  | ~65 | ~4.57 | 4.57 | 4.57 | protected | 3104 | ~3.3 | approximately 35% | 6-7 fold | ~5
